The values that follow come from publication PMC4745115.

Substrate in this data set: C[N+](C)(C)CCO
Kind of data set: SSM-based electrophysiology, peak currents, proteoliposomes. Type of data set: biochemical, Corynebacterium glutamicum. Conditions: 500 mM NaCl, 250 mM KPi pH 7.5, 22 °C.

B1: BetP (Corynebacterium glutamicum ATCC 13032; G153D) (protein)
chain: MTTSDPNPKPIVEDAQPEQITATEELAGLLENPTNLEGKLADAEEEIILEGEDTQASLNWSVIVPALVIVLATVVWGIGFKDSFTNFASSALSAVVDNLGWAFILFGTVFVFFIVVIAASKFGTIRLGRIDEAPEFRTVSWISMMFAAGMGIDLMFYGTTEPLTFYRNGVPGHDEHNVGVAMSTTMFHWTLHPWAIYAIVGLAIAYSTFRVGRKQLLSSAFVPLIGEKGAEGWLGKLIDILAIIATVFGTACSLGLGALQIGAGLSAANIIEDPSDWTIVGIVSVLTLAFIFSAISGVGKGIQYLSNANMVLAALLAIFVFVVGPTVSILNLLPGSIGNYLSNFFQMAGRTAMSADGTAGEWLGSWTIFYWAWWISWSPFVGMFLARISRGRSIREFILGVLLVPAGVSTVWFSIFGGTAIVFEQNGESIWGDGAAEEQLFGLLHALPGGQIMGIIAMILLGTFFITSADSASTVMGTMSQHGQLEANKWVTAAWGVATAAIGLTLLLSGGDNALSNLQNVTIVAATPFLFVVIGLMFALVKDLSNDVIYLEYREQQRFNARLARERRVHNEHRKRELAAKRRRERKASGAGKRR
Regarding B1, the Km was 135 ± 28 µM.
